Results: patent publication CN106699884A (ZONHON BIOPHARMA INST INC; GENSUN INST BIOMEDICINE CO LTD, dated 2017)

Molecular target: T1, 人C-反应蛋白 (human C-reactive protein, extracted from human plasma, HyTest) (human, UniProt P02741 19-224)
T1 construct: mature; Native protein from plasma; In the Western blot it was run on both non-denaturing and SDS gels; also called CRP; 天然CRP
T1 sequence (looked up): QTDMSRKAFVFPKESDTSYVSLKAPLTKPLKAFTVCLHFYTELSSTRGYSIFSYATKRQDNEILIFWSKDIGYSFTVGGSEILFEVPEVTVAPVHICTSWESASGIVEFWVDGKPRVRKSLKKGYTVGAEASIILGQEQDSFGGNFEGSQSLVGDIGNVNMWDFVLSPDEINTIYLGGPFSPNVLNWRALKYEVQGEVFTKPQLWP
Test: Western blot, HRP-labelled scFv on native CRP from non-denaturing and SDS-PAGE gels

- binding result: binds
B1: 单链抗体P20 (anti-human C-reactive protein scFv P20) (scFv)
scFv: EVMLVESGGGLVKPGGSLKLSCAASGFTFSSYAMSWVRQTPERRLEWVATISTSGSDRYYPDSVKWRFTISRDSAKNILYLQMSSLRSEDTAMYYCARRGWDYWGQGTSVTVSAGGGGSGGGGSGGGGSDVVMTQTPLSLPVSLGDQASISCRSSQSLVHSNGNTYLHWYLQKSGQSPKLLLYKVSNRFSGVSDRFSGSGSGTDFTLKISRVEAEDLGVYFCSQNTHVPPTFGGGTKLEIKR
notes: Recombinant scFv made in E. coli BL21(DE3) and purified on HisTrap HP; It was HRP-labelled (P20-HRP) in the Western blot and was the coating antibody on nitrocellulose in the colloidal gold card; also called P20-scFv-(HIS)6; P20-HRP
